This note sets out measurements from publication PMC10863982 (2024).

The assay concerns the target T1, GST-CTU2 (Arabidopsis thaliana (Mouse-ear cress), UniProt O65628).
T1 chain: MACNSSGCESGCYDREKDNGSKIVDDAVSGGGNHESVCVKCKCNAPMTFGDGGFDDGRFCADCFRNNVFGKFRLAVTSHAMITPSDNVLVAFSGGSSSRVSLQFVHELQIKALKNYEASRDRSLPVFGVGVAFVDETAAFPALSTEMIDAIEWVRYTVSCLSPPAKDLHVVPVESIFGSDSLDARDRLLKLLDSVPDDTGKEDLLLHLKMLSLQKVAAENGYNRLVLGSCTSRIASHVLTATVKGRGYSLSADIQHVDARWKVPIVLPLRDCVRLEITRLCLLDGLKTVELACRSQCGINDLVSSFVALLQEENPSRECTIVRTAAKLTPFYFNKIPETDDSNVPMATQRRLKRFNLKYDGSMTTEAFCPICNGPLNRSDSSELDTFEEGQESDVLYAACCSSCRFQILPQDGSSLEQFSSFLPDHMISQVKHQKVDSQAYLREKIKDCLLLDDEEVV
In words: GST pull-down.

B1: ROL5-His (protein)
chain: MEAKNKKAVASRLCCLCNLRRPVLKRPKTLQQICRECFYEVFEEEIHQVIVQNRLFKSGERVAIGASGGKDSTVLAYVLSELNRRHNYGLDLFLLSIDEGITGYRDDSLETVKRNEVQYGLPLKIVSYKDLYGWTMDEIVKMIGLKNNCTFCGVFRRQALDRGAALLKVEKLVTGHNADDIAETVLLNILRGDIARLSRCTSITTGEDGPIPRCKPFKYTYEKEIVMYAYFKKLDYFSTECIYSPNAYRGFAREFIKDLERIRPRAILDIIKSGEDFRIATTTKMPEQGTCERCGYISSQKWCKACVLLEGLNRGLPKMGIGRPRGVNGDHNKETKKPGSVAKSIESKQCGSLDF
In the case of B1, the binding result is given as “binds”.
